Measured values as given in patent US20130244255A1 (published 2013).

Columns and labels:
[1] = target: T1, GPNMB (CG56972) as expressed by human cell lines (human, UniProt Q14956 23-492); experiment: FACS on KG-1 cells, antibody 1 ug/mL
T1 construct: Endogenous or transfected full-length protein on cells (FACS, killing assays) or in cell lysates (immunoprecipitation, blot); also called native GPNMB protein
T1 sequence: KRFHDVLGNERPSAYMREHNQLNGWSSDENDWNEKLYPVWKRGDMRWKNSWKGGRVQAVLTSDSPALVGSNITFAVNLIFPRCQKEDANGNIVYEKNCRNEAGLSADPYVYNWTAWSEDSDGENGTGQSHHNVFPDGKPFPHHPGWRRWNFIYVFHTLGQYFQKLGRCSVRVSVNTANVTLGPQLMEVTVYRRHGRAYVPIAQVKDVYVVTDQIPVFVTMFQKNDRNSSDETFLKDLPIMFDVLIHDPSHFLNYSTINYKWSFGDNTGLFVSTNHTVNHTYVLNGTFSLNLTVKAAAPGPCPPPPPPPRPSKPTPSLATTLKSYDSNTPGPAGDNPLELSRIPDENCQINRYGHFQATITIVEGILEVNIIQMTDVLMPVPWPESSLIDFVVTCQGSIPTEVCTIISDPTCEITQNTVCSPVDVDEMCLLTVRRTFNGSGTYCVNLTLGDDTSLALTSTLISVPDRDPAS
Procedure: (§1) Lymphoma or leukemia derived cells were washed twice with ice-cold FACS buffer and resuspended at 1 million cells per assay tube. […] Cells were then washed 2-3 times and resuspended in 1 mL of ice-cold FACS buffer. R-PE-conjugated goat anti-human antibody at 1:100 dilution was added and cells were incubated on ice for 30 min. Cells were washed 3 times with 1 mL of ice-cold FACS buffer, fixed with 0.5-1 mL of 1% formaldehyde in PBS and analyzed by Flow Cytometry.

[2] = target: T1, GPNMB (CG56972) as expressed by human …; experiment: FACS on UACC-62 cells
[3] = target: T1, GPNMB (CG56972) as expressed by human …; experiment: FACS on EOL-1 cells, antibody 1 ug/mL
[4] = target: T1, GPNMB (CG56972) as expressed by human …; experiment: FACS on SUP-M2 cells, antibody 1 ug/mL
Procedure: as §1

[5] = target: T1, GPNMB (CG56972) as expressed by human …; experiment: FACS on G361 cells
[6] = target: T1, GPNMB (CG56972) as expressed by human …; experiment: FACS on HH cells, antibody 1 ug/mL
[7] = target: T2, Recombinant human GPNMB extra-cellular domain (ECD) with a C-terminus V5-HIS tag (human, UniProt Q14956 23-492); experiment: Biacore, mAb captured on protein A
T2 construct: Expressed in HEK293; also called GPNMB-V5His; GPNMB-soluble
T2 sequence: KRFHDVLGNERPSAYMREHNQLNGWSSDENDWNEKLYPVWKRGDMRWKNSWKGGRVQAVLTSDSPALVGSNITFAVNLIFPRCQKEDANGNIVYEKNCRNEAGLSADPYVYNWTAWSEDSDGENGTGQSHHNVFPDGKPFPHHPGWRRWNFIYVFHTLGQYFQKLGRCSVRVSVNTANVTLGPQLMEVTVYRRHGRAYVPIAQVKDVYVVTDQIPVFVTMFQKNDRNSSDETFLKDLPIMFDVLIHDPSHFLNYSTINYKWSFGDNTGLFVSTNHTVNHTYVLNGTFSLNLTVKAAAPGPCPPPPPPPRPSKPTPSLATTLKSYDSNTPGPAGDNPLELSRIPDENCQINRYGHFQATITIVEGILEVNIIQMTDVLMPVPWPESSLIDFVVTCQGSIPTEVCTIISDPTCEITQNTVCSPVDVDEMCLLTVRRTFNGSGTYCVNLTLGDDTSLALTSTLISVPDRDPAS
Procedure: Certain Hybridoma cell supernatants (29) were analyzed for binding to GPNMB by BiaCore® 2000 biosensor equipped with a research-grade CM5 sensor chip. A 1:25 dilution of cell supernatant was passed over a protein A surface for 5 min followed by washing the surface for 10 mins. […] GPNMB binding data for each mAb was normalized for the amount of mAb captured on each surface. Normalized, drift corrected responses were also measured. The sensorgrams were fit to a simple 1:1 kinetic model.

[8] = target: T1, GPNMB (CG56972) as expressed by human …; experiment: FACS on UACC-62 cells, antibody 1 ug/mL
Procedure: The specificity of anti-GPNMB antibodies to cell membrane-bound GPNMB protein expressed by melanoma cancer cell line, UACC-62 was analyzed by FACS analysis. […] Cells were washed twice with PBS (Ca and Mg free), incubated with Versene at 37° C. until cells detached, counted and aliquoted at 1 million cells per assay tube. Cells were then washed twice and resuspended in ice-cold FACS buffer (0.01 M HEPES, 0.15M NaCl, 0.1% NaN₃ and 4% FBS). Primary antibody at 1 μg/mL was added to the cells. Cells were incubated on ice for 30 min, washed 2-3 times and resuspended in 1 mL of ice-cold FACS buffer. R-PE-conjugated goat anti-human antibody (Jackson ImmunoResearch Laboratory) at 1:100 dilution was added and cells were incubated on ice for 30 min. After washing 3 times with 1 mL of ice-cold FACS buffer, cells were fixed with 0.5-1 mL of 1% formaldehyde in PBS and analyzed by flow cytometry.

[9] = target: T1, GPNMB (CG56972) as expressed by human …; experiment: FACS on U87MG cells, CR011 10 ug/mL
Procedure: (§2) Quantitative analysis of CG56972 expression on the surface of cell lines was determined by flow cytometry (FACS). […] Cells were fixed in 1% paraformaldehyde/PBS and examined on a Becton Dickinson FACSCalibur flow cytometer. Data analysis was performed with Becton Dickinson Cell Quest software version 3.3 and the geometric mean fluorescence intensity ratio (GMR) was determined for each cell type.

[10] = target: T1, GPNMB (CG56972) as expressed by human …; experiment: FACS on MEWO cells
[11] = target: T1, GPNMB (CG56972) as expressed by human …; experiment: FACS on WM115 cells
[12] = target: T1, GPNMB (CG56972) as expressed by human …; experiment: FACS on HUT-102 cells, antibody 1 ug/mL
[13] = target: T1, GPNMB (CG56972) as expressed by human …; experiment: FACS on SK-Mel 5 cells
[14] = target: T1, GPNMB (CG56972) as expressed by human …; experiment: FACS on SK-Mel 24 cells
[15] = target: T1, GPNMB (CG56972) as expressed by human …; experiment: FACS on MOLT-4 cells, antibody 1 ug/mL
Procedure: as §1

[16] = target: T1, GPNMB (CG56972) as expressed by human …; experiment: FACS on XF-498, U-118-MG, SNB-78 and SF-539 cells
Procedure: as §2

[17] = target: T1, GPNMB (CG56972) as expressed by human …; experiment: FACS on WM-266-4 cells
[18] = target: T1, GPNMB (CG56972) as expressed by human …; experiment: FACS on SF-268 cells, CR011 10 ug/mL
Procedure: as §2
Geometric Mean ratios (GMR) were determined by flow cytometric analysis.

[19] = target: T1, GPNMB (CG56972) as expressed by human …; experiment: FACS on UACC-257 cells
[20] = target: T1, GPNMB (CG56972) as expressed by human …; experiment: FACS on SIG-M5 cells, antibody 1 ug/mL
Procedure: as §1

[21] = target: T1, GPNMB (CG56972) as expressed by human …; experiment: FACS on SK-Mel 2 cells
[22] = target: T1, GPNMB (CG56972) as expressed by human …; experiment: FACS on Jurkat cells, antibody 1 ug/mL
Procedure: as §1

[23] = target: T1, GPNMB (CG56972) as expressed by human …; experiment: FACS on DEL cells, antibody 1 ug/mL
Procedure: as §1

[24] = target: T1, GPNMB (CG56972) as expressed by human …; experiment: FACS on D392-MG cells, CR011 10 ug/mL
Procedure: as §2

B1: CR011 mAb 1.15.1 (IgG2) (antibody)
heavy: QVQLQESGPGLVKPSQTLSLTCTVSGGSISSFNYYWSWIRHHPGKGLEWIGYIYYSGSTYSNPSLKSRVTISVDTSKNQFSLTLSSVTAADTAVYYCARGYNWNYFDYWGQGTLVTVSSASTKGPSVFPLAPCSRSTSESTAALGCLVKDYFPEPVTVSWNSGALTSGVHTFPAVLQSSGLYSLSSVVTVPSSNFGTQTYTCNVDHKPSNTKVDKTVERKCCVECPPCPAPPVAGPSVFLFPPKPKDTLMISRTPEVTCVVVDVSHEDPEVQFNWYVDGVEVHNAKTKPREEQFNSTFRVVSVLTVVHQDWLNGKEYKCKVSNKGLPAPIEKTISKTKGQPREPQVYTLPPSREEMTKNQVSLTCLVKGFYPSDIAVEWESNGQPENNYKTTPPMLDSDGSFFLYSKLTVDKSRWQQGNVFSCSVMHEALHNHYTQKSLSLSPGK
VL: not shown
notes: also called CR011.1.15.1; CR011 IgG2
- Geo Mean Ratio [1]: 6.9 ratio
- Geo Mean Ratio (relative to isotype) [2]: 5.5 ratio
- Geo Mean Ratio [3]: 1 ratio
- Geo Mean Ratio [4]: 4.8 ratio
- Geo Mean Ratio (relative to isotype) [5]: 8 ratio
- Geo Mean Ratio [6]: 1 ratio
- Kd [7]: 52 nM
- koff [7]: 0.000855 s⁻¹
- kon [7]: 16500 M⁻¹ s⁻¹
- Geo Mean Ratio (relative to pK16) [8]: 7.89 ratio
- CR011 Fold Shift (GMR) [9]: 1.5 fold
- Geo Mean Ratio (relative to isotype) [10]: 14.1 ratio
- Geo Mean Ratio (relative to isotype) [11]: 1.3 ratio
- Geo Mean Ratio [12]: 1 ratio
- Geo Mean Ratio (relative to isotype) [13]: 5.7 ratio
- Geo Mean Ratio (relative to isotype) [14]: 1.9 ratio
- Geo Mean Ratio [15]: 6.2 ratio
- surface staining, fold above isotype control mAb background [16]: ≥ 1.5 fold
- Geo Mean Ratio (relative to isotype) [17]: 13.6 ratio
- CR011 Fold Shift (GMR) [18]: 1.5 fold
- Geo Mean Ratio (relative to isotype) [19]: 7 ratio
- Geo Mean Ratio [20]: 2.9 ratio
- Geo Mean Ratio (relative to isotype) [21]: 16.5 ratio
- Geo Mean Ratio [22]: 14.7 ratio
- Geo Mean Ratio [23]: 7.9 ratio
- CR011 Fold Shift (GMR) [24]: 3.1 fold
